US20110009597A1, “RECOMBINANT GANODERMA LUCIDIUM IMMUNOMODULATORY PROTEIN (rLZ-8) AND USES THEREOF” (priority 2008, published 2011)

Legend:
[1] = test system: human red blood cells (A, B, O and AB blood type); assay: Red blood cell agglutination, human; assay type: cell-based
Method: A, B, O and AB blood type, from the healthy volunteers 2 ml respectively, SRBC (sheep red cell) 2 ml. Centrifuge the above RBC 1200 g·min^−1 for 10 min, clears the supernatant and wash with 5 ml PBS, repeat the above operation 3-5 times, and then uses 0.01 mol/L PBS suspension preparation of 1.5%. Prepare rLZ-8 with normal saline to final concentrations of 50 μg·ml^−1, 25 μg·ml^−1, 12.5 μg·ml^−1, 6.25 μg·ml^−1, 1.56 μg·ml^−1, 0.78 μg·ml^−1, 0.39 μg·ml^−1, 0.20 μg·ml^−1, 0.10 μg·ml^−1, 0.05 μg·ml^−1, 0.03 μg·ml^−1. Plant agglutinin (PHA) preparation Ibid.
Divide experiment subjects into rLZ-8 concentration groups, positive drug control, and normal control group.
On 96-orifice Hemagglutination board, we add A-type 1.5%, erythrocyte 25 μl/hole, and then add 0.2% gelatin, 75 μl/hole. Drug groups are added different concentrations of rLZ-8, till the final concentration as above-noted; positive drug control group PHA 25 μl/hole; normal control group PBS25μl/hole. 6 parallel control groups in each group. Shaking for 30 s under normal room temperature, 37° C. incubation, observe the subjects 1 h later. For B-type, AB-type, O-type, the same experiment methods are as SRBC (sheep red cell) above.

[2] = test system: mouse peritoneal H22 tumor cells; assay: H22 ascites tumor inhibition experiment; assay type: in vivo, Mice
Method: Mouse hepatoma cell strain H22, offered by our laboratory.
Treatment after 24 h of vaccination. […] Daily weighing, observe the weight changes of mice, drawing weight growth curves.

WBC = assay: Treatment of radiation leucopenia model of mice, WBC; assay type: in vivo; set-up: unit not given here; conditions: 7.5 Gy γ-ray
Method: rLZ-8 preparation of sterile saline. Divide them into 5 ∞g·kg^−1, 2.5 μg·kg^−1, 1.25 μg·kg^−1, 0.62 μg·kg^−1 dose groups. 0.2 ml/vial.
Genlei™ Scimax™ [Recombinant human granulocyte colony-stimulating factor injection (rhG-CSF)], production lot: 20060403; 150m/vial is prepared with sterile normal saline into the preparation of 3.2 μg·kg^−1, 0.2 ml/vial.
The mice were irradiated by 7.5 Gy γ-ray (180 mV, 15 mA) and then divided into seven groups (n=10): (A) negative control; (B) 5 μg·kg−1 dose; (C) 2.5 μg·kg−1 dose; (D) 1.25 μg·kg−1 dose; (E) 0.62 μg·kg−1 dose; (F) positive control (Genlei™ Scimax™); (G) model group. Together with modeling, mice in each group were administered with Genlei™ Scimax™ and rLZ-8 for 9 days, drew blood from tail, tested the number of WBC, weight spleen, calculated index of spleen.

NB4 = assay: Annexin V-FITC flow cytometry, apoptosis of NB4; assay type: cell-based; conditions: Annexin V/PI
Method: FACS Calibur flow cytometry, U.S. Becton-Dickinson.Coompany. NB4, HL-60. rLZ-8 is prepared with IMDM culture medium containing 2% FCS into the preparation of 0.1 μg·ml^−1, 0.5 μg·ml^−1, 2.5 μg·ml^−1, arsenic trioxide (As2O3) 0.5 μg·ml^−1 AnnexinV-FITC kit: combining buffer solution 4×; Propidium iodide solution (PI), 20 μg·ml−1, 0.2 ml; recombinant human Annexin V/FITC, 0.1 ml.
Establish NB4 normal control group, positive drug group (As2O3 0.5 μg·ml^−1), protein low-dose group (0.1 μg·ml^−1), medium-dose group (0.5 μg·ml^−1), high-dose group, (2.5 μg·ml^−1); establish HL-60 normal control group, protein low-dose group (0.1 μg·ml^−1), medium-dose group (0.5 μg·ml^−1), high-dose group, (2.5 μg·ml^−1).
Mix NB4 and HL-60 cell into 24-orifice plate respectively, 1 ml/hole supply rLZ-8 in different concentrates, set 3-orifice multipunches for each group. Put them in 37° C., 5% CO2 incubator for 24 h, collect the cells of each concentrate, washes the cells twice with pre-cooled PBS 4° C., with 250 μl binding buffer solution re-suspending cells and regulates the cell density to 1×10^6/ml, taking out 100 μl to 5 ml streaming tube, and add 5 μl Annexin V/FITC and 10 μl 20 μg·ml^−1 PI solution, after mixing put it in room temperature and lucifuged hatching 15 min, add 400 μl PBS by flow cytometry analysis.

[3] = test system: Mouse hepatoma cell strain H22; assay: H22 subcutaneous tumor inhibition experiment; assay type: in vivo, Mice; conditions: 10 days
Method: Mice, weight 18-22g, males and females were divided equally, from Jilin University Laboratory Animal Center. Mouse hepatoma cell strain H22, offered by our laboratory. Cyclophosphamide (CTX), offered by Jiangsu Hengrui Medicine Co., Ltd., lot number: 06101921.
H22 hepatoma cells experiment group were divided into normal control group, negative control group, positive control group, rLZ-8 low-dose treatment group (0.25 mg·kg^−1), rLZ-8 medium-dose treatment group (0.5 mg·kg^−1), rLZ-8 high-dose treatment group (1 mg·kg^−1). For each group 10 mice.
H22 subcutaneous tumor tumor inhibition experiment methods: Select well-growing 1-122 cells, dilute appropriately with sterile saline into a tumor cell suspension, cell counts for 10^7·L^−1, under the right armpit of each mouse inoculated subcutaneously 0.2 ml (except for the normal control group). Treatment after 24 h of vaccination. Normal control group and negative control group were given saline 0.2 ml·each^−1·d^−1, intraperitoneal injection; positive control group were given cyclophosphamide 20 mg·kg^−1, 0.2 ml·each^−1·d^−1, intraperitoneal injection. rLZ-8 treatment groups were given doses of tail venous injection respectively, 0.2 ml·each^−1·d^−1, in 10 consecutive days. Draw blood from orbital venous plexus 10 days before and after medication respectively, sent to Jilin University No. 1 Hospital clinical laboratory to test and analyze the number of WBC. Kill all the mice the next day of drug withdrawal at cervical dislocation, dissected anatomically and took out the tumors, weigh tumors, calculated the inhibition rate using the following equation:
Inhibition rate (%)=(average tumore weight of the control group−average tumor weight of the experiment group)/average tumor weight of the control group×100%

[4] = rLZ-8 0.25 mg·kg^−1 tail venous injection
[5] = rLZ-8 0.5 mg·kg^−1 tail venous injection
[6] = rLZ-8 1 mg·kg^−1 tail venous injection

B1: rLZ-8: Recombinant Ganoderma Lucidum Immune Regulatory Protein expressed in Pichia pastoris (protein, UniProt P14945 2-111, looked up)
Immunomodulatory protein Ling …: SDTALIFRLAWDVKKLSFDYTPNWGRGNPNNFIDTVTFPKVLTDKAYTYRVAVSGRNLGVKPSYAVESDGSQKVNFLEYNSGYGIADTNTIQVFVVDPDTNNDFIIAQWN
agglutination of four types of human red blood cells (in words) [1]: not agglutinative
growth of peritoneal H22 tumor cells (body weight curve) ([2]; rLZ-8 0.25-1 mg·kg^−1 tail venous injection, 10 days): inhibited the mouse peritoneal H22 tumor cells growth
survival of H22 ascites mice ([2]; rLZ-8 groups vs negative control group): survive longer than the negative control group
WBC, 5th day (WBC; rLZ-8 0.62 μg·kg^−1): 0.73 ± 0.43
WBC, 7th day (WBC; rLZ-8 0.62 μg·kg^−1): 0.26 ± 0.43
WBC, 9th day (WBC; rLZ-8 0.62 μg·kg^−1): 0.64 ± 0.01
WBC, 5th day (WBC; rLZ-8 1.25 μg·kg^−1): 0.82 ± 0.45
WBC, 7th day (WBC; rLZ-8 1.25 μg·kg^−1): 0.65 ± 0.45
WBC, 9th day (WBC; rLZ-8 1.25 μg·kg^−1): 0.70 ± 0.12
WBC, 5th day (WBC; rLZ-8 2.50 μg·kg^−1): 0.69 ± 0.54
WBC, 7th day (WBC; rLZ-8 2.50 μg·kg^−1): 0.56 ± 0.54
WBC, 9th day (WBC; rLZ-8 2.50 μg·kg^−1): 0.54 ± 0.13
WBC, 5th day (WBC; rLZ-8 5 μg·kg^−1): 0.84 ± 0.32
WBC, 7th day (WBC; rLZ-8 5 μg·kg^−1): 0.31 ± 0.32
WBC, 9th day (WBC; rLZ-8 5 μg·kg^−1): 0.90 ± 0.14
Apoptosis rate (NB4; NB4, rLZ-8 0.1 μg·ml−1, 24 h): 21.0%
Apoptosis rate (NB4; NB4, rLZ-8 0.5 μg·ml−1, 24 h): 22.3%
Apoptosis rate (NB4; NB4, rLZ-8 2.5 μg·ml−1, 24 h): 34.0%
Inhibition rate (%) [3, 4]: 16.7%
Tumor weight [3, 4]: 1.00 ± 0.03 g
Inhibition rate (%) [3, 5]: 30.0%
Tumor weight [3, 5]: 0.84 ± 0.02 g
Inhibition rate (%) [3, 6]: 42.5%
Tumor weight [3, 6]: 0.69 ± 0.03 g
